This is an account of results in patent US20240209078A1.

Residue numbers refer to the chain shown, from its start. Names may count otherwise. Where two headings read alike, the source gives them in different places.

For experiment [1], the target named is human MSLN (mesothelin) (human) (UniProt Q13421). Put plainly: cell-based or functional assay.
Experiment [2] has the same target. Put plainly: cell-based or functional assay. The source holds these as a separate data set.
In experiment [3] the target is human MSLN (human) (UniProt Q13421). Put plainly: cell-based affinity, flow cytometry on target-transfected CHO cells, nonlinear regression (one site - specific binding), mean of three measurements.
Experiment [4] has the same target. Put plainly: cell-based or functional assay.

B1: CH3 15-E11 CC×I2L×G4×scFc×G4×MS 15-B12 CC×I2L_GQ (SEQ ID NO 251) (bispecific antibody)
chain: QVQLVQSGAEVKKPGASVKVSCKASGYTFTNYWMNWVRQAPGQCLEWMGNIAYGVKGTNYNQKFQGRVTMTVDTSSSTAYMELSRLRSDDTAVYYCATRYFYVMDYWGQGTLVTVSSGGGGQGGGGQGGGGQDIQMTQSPSSLSASVGDRVTITCRASQDISNYLNWYQQKPGKVPKLLIYYTSRLHSGVPSRFSGSGSGTDFTLTISSLQPEDVATYYCVQYAQFPLTFGCGTKVEIKSGGGGQEVQLVESGGGLVQPGGSLKLSCAASGFTFNKYAMNWVRQAPGKGMEWVARIRSKYNNYATYYADAVKDRFTISRDDSKNTLYLQMNNLKTEDTAVYYCVRAGNFGSSYISYFAYWGQGTLVTVSSGGGGQGGGGQGGGGQQTVVTQEPSLTVSPGGTVTITCGSSTGAVTSGNYPNWIQKKPGQAPRGLIGGTKFLAPGTPARFSGSLEGGKAALTLSGVQPEDEAEYYCVLYYSNRWVFGSGTKLTVLGGGGCPPCPAPELLGGPSVFLFPPKPKDTLMISRTPEVTCVVVDVSHEEPEVKFNWYVDGVEVHNAKTKPCEEQYGSTYRCVSVLTVLHQDWLNGKEYKCKVSNKALPAPIEKTISKAKGQPREPQVYTLPPSREEMTKNQVSLTCLVKGFYPSDIAVEWESNGQPENNYKTTPPVLDSDGSFFLYSKLTVDKSRWQQGNVFSCSVMHEALHNHYTQKSLSLSPGKGGGGQGGGGQGGGGQGGGGQGGGGQGGGGQCPPCPAPELLGGPSVFLFPPKPKDTLMISRTPEVTCVVVDVSHEEPEVKFNWYVDGVEVHNAKTKPCEEQYGSTYRCVSVLTVLHQDWLNGKEYKCKVSNKALPAPIEKTISKAKGQPREPQVYTLPPSREEMTKNQVSLTCLVKGFYPSDIAVEWESNGQPENNYKTTPPVLDSDGSFFLYSKLTVDKSRWQQGNVFSCSVMHEALHNHYTQKSLSLSPGKGGGGQVQLQESGPGLVKPSETLSLTCTVSGGSISSSSYFWGWIRQPPGKCLEWIGNIYYSGSSNYNPSLKSRVTISVDTSKNQFSLKLSSVTAADTAVYYCARLPRGDRDAFDIWGQGTMVTVSSGGGGQGGGGQGGGGQDIVMTQSPSSLSASVGDRVTITCRASQGISNYLAWYQQKPGKVPKLLIYAASTLQSGVPSRFSGSGSGTDFTLTISSLQPEDFATYYCQQSYSTPFTFGCGTKVEIKSGGGGQEVQLVESGGGLVQPGGSLKLSCAASGFTFNKYAMNWVRQAPGKGMEWVARIRSKYNNYATYYADAVKDRFTISRDDSKNTLYLQMNNLKTEDTAVYYCVRAGNFGSSYISYFAYWGQGTLVTVSSGGGGQGGGGQGGGGQQTVVTQEPSLTVSPGGTVTITCGSSTGAVTSGNYPNWIQKKPGQAPRGLIGGTKFLAPGTPARFSGSLEGGKAALTLSGVQPEDEAEYYCVLYYSNRWVFGSGTKLTVL
Turning to B1, in experiment [1], the cytotoxicity EC50, E:T ratio 1:1, GSU KO CDH3 cells is 108 pM; the cytotoxicity EC50, E:T ratio 1:2, GSU KO CDH3 cells was determined as 446 pM; the cytotoxicity EC50, E:T ratio 10:1, GSU KO CDH3 cells was 39.6 pM; the cytotoxicity EC50, GSU KO CDH3 cells amounted to 512 pM. In experiment [1], this molecule displayed a cytotoxicity EC50, HCT 116 KO CDH3 cells of 51.8 pM. The cytotoxicity EC50, GSU KO CDH3 cells in experiment [2] turned out to be 512 pM.

B2: CH3 15-E11 VAG CC×I2L×G4×scFc×MS 15-B12 CC×I2L clipopt ID (SEQ ID NO 434) (bispecific antibody)
chain: B1 chain with K56A
In experiment [1], B2 gave a cytotoxicity EC50, GSU KO CDH3 cells of 75.2 pM and a cytotoxicity EC50, HCT 116 KO CDH3 cells of 5.9 pM.

B3: CH3 15-E11_1_VAG_CC × I2L × G4 × scFc × G4 × MS 15-B12 CC × I2L clipopt_DI (bispecific antibody)
chain: B1 chain with K56A
As usually defined, the Kd is the equilibrium constant for the complex coming apart. A higher Kd goes with weaker binding. In the experiment with human MSLN (human) [3], B3 showed a Kd of 40000 pM.

B4: CH3 15-E11 CC × I2L × G4 × scFc × G4 × MS 15-B12 CC × I2L_GQ (bispecific antibody)
chain: B1 chain
In the experiment with human MSLN (human) [4], B4 came in with an EC50 (cytotoxicity) on double positive cells; column head printed 'EC50 CHO hu CDH3 (+) & MSLN (+)'; value is that of HCT 116 wt in Table 46 of 0.071 pM; an EC50 (cytotoxicity); column head printed 'EC50 CHO hu CDH3 (+)', table title HCT 116; value is that of HCT 116 KO CDH3 in Table 46 of 51.8 pM; an EC50 on HCT 116 KO CDH3 (cytotoxicity; cells CDH3-, MSLN+) of 51.8 pM; an EC50 on HCT 116 wt (cytotoxicity; cells CDH3+, MSLN+) of 0.07 pM. In the experiment with human MSLN (human) [4], this molecule registered a fold gap of column 6 (HCT 116 KO CDH3 by Table 46) against double positive cells of 727 fold. In the experiment with human MSLN (human) [3], this molecule gave a Kd of 33800 pM.
